Test results reported in patent US20220096547A1.

molecular target: human TLR5 (human) (UniProt O60602); experiment: cell-based or functional assay
Sequence of UniProt O60602 (O60602 21-858): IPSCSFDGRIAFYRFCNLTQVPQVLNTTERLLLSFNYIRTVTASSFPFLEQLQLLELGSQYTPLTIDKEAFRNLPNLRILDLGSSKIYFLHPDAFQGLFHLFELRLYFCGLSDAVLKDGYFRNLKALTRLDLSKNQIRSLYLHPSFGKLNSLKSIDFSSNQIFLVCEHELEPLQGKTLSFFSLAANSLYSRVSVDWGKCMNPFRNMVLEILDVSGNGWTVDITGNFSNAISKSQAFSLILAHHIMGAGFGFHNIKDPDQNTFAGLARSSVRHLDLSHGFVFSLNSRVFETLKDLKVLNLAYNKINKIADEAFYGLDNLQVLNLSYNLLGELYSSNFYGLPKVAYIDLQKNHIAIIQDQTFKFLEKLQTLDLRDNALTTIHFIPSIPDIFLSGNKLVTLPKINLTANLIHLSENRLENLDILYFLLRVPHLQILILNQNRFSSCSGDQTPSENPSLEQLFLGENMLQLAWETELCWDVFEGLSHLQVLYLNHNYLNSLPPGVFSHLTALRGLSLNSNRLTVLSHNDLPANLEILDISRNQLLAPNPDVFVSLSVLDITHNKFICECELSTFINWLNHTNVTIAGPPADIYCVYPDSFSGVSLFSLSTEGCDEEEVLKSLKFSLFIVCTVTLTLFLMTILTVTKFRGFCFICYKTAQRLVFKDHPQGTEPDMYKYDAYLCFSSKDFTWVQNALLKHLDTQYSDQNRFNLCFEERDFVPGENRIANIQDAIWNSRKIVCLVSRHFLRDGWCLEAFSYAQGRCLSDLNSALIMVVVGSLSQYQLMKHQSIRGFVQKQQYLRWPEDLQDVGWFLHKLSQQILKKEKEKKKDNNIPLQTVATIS

Row | Substance | TLR5 activation activity (NF-κB SEAP reporter assay) compared to full-length flagellin
1 | Salmonella typhimurium flagellin fragment Flic-6a (from UniProt P06175 71-493) (ligand) | > 50%
2 | Salmonella typhimurium flagellin fragment Flic-7a (from UniProt P06175 71-493) (ligand) | > 50%
3 | Salmonella typhimurium flagellin fragment Flic-8a (from UniProt P06175 71-493) (ligand) | > 50%
4 | Salmonella typhimurium flagellin fragment Flic-12a (from UniProt P06175 37-493) (ligand) | > 50%
5 | Salmonella typhimurium flagellin fragment Flic-14a (from UniProt P06175 37-493) (ligand) | > 50%
6 | Salmonella typhimurium flagellin fragment Flic-15a (from UniProt P06175 37-493) (ligand) | > 50%
7 | Salmonella typhimurium flagellin fragment Flic-20a (from UniProt P06175 51-493) (ligand) | > 50%
8 | Salmonella typhimurium flagellin fragment Flic-21a (from UniProt P06175 51-469) (ligand) | > 50%
9 | Salmonella typhimurium flagellin fragment Flic-22a (from UniProt P06175 51-493) (ligand) | > 50%
10 | Salmonella typhimurium flagellin fragment Flic-23a (from UniProt P06175 51-493) (ligand) | > 50%
